Measured values published in patent publication US20050233406A1, “Methods for high resolution identification of solvent accessible amide hydrogens in polypeptides and for characterization of polypeptide structure” (priority 2002, published 2005).

Biological target: T1, RIIα isoform of PKA (regulatory subunit) (Mus musculus, UniProt P12367)
T1 construct: made in house; host or cells: E. coli BL21 (DE3)
Experiment: Surface plasmon resonance binding of D-AKAP2 to immobilized RIIα (BIAcore 3000)
Set-up: species or system murine
Settings: 1:1 binding model, average of three replicates, read-out: Kd (dissociation constant)
Description: FIG. 2 depicts the binding of D-AKAP2 to the regulatory subunit (RIIα) of PKA as determined using surface plasmon resonance. A total of 450 response units of RIIα were immobilized to a cAMP sensor chip. Serial dilutions (250-2 nM) of D-AKAP2 were injected over the surface. Both the one rate (kon) and the off rate (koff) were fit globally using the concentration series. A 1:1 binding model fits the data well and is illustrated as a bold line.
Binding of RIIa to D-AKAP2 was performed using a BIAcore 3000 (BIAcore). The regulatory subunit of PKA was immobilized to a CM5 chip (BIAcore) as described (Herberg et al., J. Mol. Biol., 298:329-339, 2000). […]
To evaluate the functional properties of this protein, binding of D-AKAP2 to the RIIα isoform of PKA was examined using surface plasmon resonance (Herberg et al., J. Mol. Biol. 298:329-339, 2000). […] D-AKAP2 was injected over the surface at varying concentrations and the affinity determined by fitting the curves to a 1:1 binding model (see FIG. 2).

T1 sequence (P12367 whole entry, canonical isoform): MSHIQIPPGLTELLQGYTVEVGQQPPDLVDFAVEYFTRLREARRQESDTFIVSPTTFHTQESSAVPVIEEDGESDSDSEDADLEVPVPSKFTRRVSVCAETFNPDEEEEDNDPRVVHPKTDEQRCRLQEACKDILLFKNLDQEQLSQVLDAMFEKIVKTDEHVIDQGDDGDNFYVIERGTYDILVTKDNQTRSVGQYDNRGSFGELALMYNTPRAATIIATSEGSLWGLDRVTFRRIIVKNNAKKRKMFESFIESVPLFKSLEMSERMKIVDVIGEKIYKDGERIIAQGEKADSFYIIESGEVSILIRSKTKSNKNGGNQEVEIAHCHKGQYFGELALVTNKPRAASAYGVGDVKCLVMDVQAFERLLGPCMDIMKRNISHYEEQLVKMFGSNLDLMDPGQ

Kd: 2 nM
Substance: AKB domain alone: PKA kinase binding (AKB) domain of D-AKAP2 (residues 336-360), tested alone without the rest of the protein (DPNCFVLAQAVVFSAMEQEHFSEFL; UniProt O88845 336-360, looked up, fragment)
